The test system of this data set is Escherichia coli TOP10. The data set can be described thus: shrunken log2 fold change of peptide-encoding DNA abundance (4.5 h post-induction vs induction); higher = less antimicrobial activity (less host growth inhibition). The settings on record: time post-induction: 4.5 h; library: site-saturation at positions 5, 18, 19, 20.
For the sequence RRIRQRPPRLPRPRPRPGVYPRP, the “shrunken log2 fold change” value came out at 0.0572.

Turning to RRIRVRPPRLPRPRPRPIIRPRP, the “shrunken log2 fold change” value was -0.199.

Consider RRIRGRPPRLPRPRPRPDEFPRP, for which the “shrunken log2 fold change” value is 0.561.

Turning to RRIRRRPPRLPRPRPRPSWWPRP, the “shrunken log2 fold change” value stood at 0.327.

Take RRIRWRPPRLPRPRPRPNEDPRP: the “shrunken log2 fold change” value amounted to 0.211.

Take RRIRKRPPRLPRPRPRPWNFPRP: the “shrunken log2 fold change” value was -0.162.

Turning to RRIRWRPPRLPRPRPRPRNVPRP, the “shrunken log2 fold change” value was -0.0411.

In the case of RRIRVRPPRLPRPRPRPYPIPRP, the “shrunken log2 fold change” value was -0.0204.

For RRIRTRPPRLPRPRPRPADYPRP, the “shrunken log2 fold change” value is -0.226.

With RRIRVRPPRLPRPRPRPGEPPRP, the “shrunken log2 fold change” value came to 0.043.

As to RRIRWRPPRLPRPRPRPSQSPRP, the “shrunken log2 fold change” value was -0.0797.

Regarding RRIRLRPPRLPRPRPRPLRNPRP, the “shrunken log2 fold change” value was 0.737.

Turning to RRIRKRPPRLPRPRPRPFKMPRP, the “shrunken log2 fold change” value is -0.231.

Take RRIRYRPPRLPRPRPRPETWPRP: the “shrunken log2 fold change” value amounted to 0.093.

As for RRIRTRPPRLPRPRPRPVMWPRP, the “shrunken log2 fold change” value is -0.11.

Take RRIRIRPPRLPRPRPRPPLEPRP: the “shrunken log2 fold change” value was -0.272.

Take RRIRQRPPRLPRPRPRPNAEPRP: the “shrunken log2 fold change” value is 0.053.

For the sequence RRIRKRPPRLPRPRPRPLPIPRP, the “shrunken log2 fold change” value is 0.143.

For RRIRSRPPRLPRPRPRPNFPPRP, the “shrunken log2 fold change” value is 0.0832.

On to RRIRRRPPRLPRPRPRPYPWPRP, for which the “shrunken log2 fold change” value is -0.101.

On to RRIRDRPPRLPRPRPRPSVQPRP, for which the “shrunken log2 fold change” value is 0.111.

Take RRIRARPPRLPRPRPRPFSRPRP: the “shrunken log2 fold change” value is -0.145.

Consider RRIRVRPPRLPRPRPRPVVVPRP, for which the “shrunken log2 fold change” value is -0.194.

On to RRIRDRPPRLPRPRPRPFPEPRP, for which the “shrunken log2 fold change” value is -0.144.

Regarding RRIRWRPPRLPRPRPRPEAGPRP, the “shrunken log2 fold change” value was determined as 0.877.

Take RRIRTRPPRLPRPRPRPGDMPRP: the “shrunken log2 fold change” value was 1.73.

Consider RRIRFRPPRLPRPRPRPYRLPRP, for which the “shrunken log2 fold change” value was found to be 0.0227.

With RRIRWRPPRLPRPRPRPGYIPRP, the “shrunken log2 fold change” value came out at 0.226.

Regarding RRIRDRPPRLPRPRPRPYMDPRP, the “shrunken log2 fold change” value is -0.393.

With RRIRARPPRLPRPRPRPICKPRP, the “shrunken log2 fold change” value is -0.159.

For RRIRCRPPRLPRPRPRPRSEPRP, the “shrunken log2 fold change” value is 0.325.

As for RRIRVRPPRLPRPRPRPRMVPRP, the “shrunken log2 fold change” value is -0.0168.

As for RRIRKRPPRLPRPRPRPDTSPRP, the “shrunken log2 fold change” value turned out to be 0.0236.

With RRIRSRPPRLPRPRPRPCYWPRP, the “shrunken log2 fold change” value is -0.121.

Take RRIRLRPPRLPRPRPRPGHHPRP: the “shrunken log2 fold change” value was -0.2.

With RRIRIRPPRLPRPRPRPCLRPRP, the “shrunken log2 fold change” value is -1.04.

Consider RRIRQRPPRLPRPRPRPCFSPRP, for which the “shrunken log2 fold change” value is -0.0347.

As for RRIRFRPPRLPRPRPRPSPKPRP, the “shrunken log2 fold change” value was 0.188.

As for RRIRERPPRLPRPRPRPEIHPRP, the “shrunken log2 fold change” value was -0.0198.

With RRIRIRPPRLPRPRPRPSPGPRP, the “shrunken log2 fold change” value was -0.552.

With RRIRARPPRLPRPRPRPHMYPRP, the “shrunken log2 fold change” value is -0.149.

In the case of RRIRERPPRLPRPRPRPDFHPRP, the “shrunken log2 fold change” value is -0.498.

On to RRIRCRPPRLPRPRPRPVCDPRP, for which the “shrunken log2 fold change” value is -0.245.

For RRIRRRPPRLPRPRPRPEHLPRP, the “shrunken log2 fold change” value is 0.242.

In the case of RRIRRRPPRLPRPRPRPIYPPRP, the “shrunken log2 fold change” value was -0.2.

Consider RRIRARPPRLPRPRPRPGPIPRP, for which the “shrunken log2 fold change” value turned out to be 0.341.

On to RRIRCRPPRLPRPRPRPDWDPRP, for which the “shrunken log2 fold change” value was -0.149.

For the sequence RRIRYRPPRLPRPRPRPGLAPRP, the “shrunken log2 fold change” value worked out at 0.323.

RRIRYRPPRLPRPRPRPPTCPRP: the “shrunken log2 fold change” value was -0.163.

Regarding RRIRTRPPRLPRPRPRPHQTPRP, the “shrunken log2 fold change” value is -0.0425.

On to RRIRYRPPRLPRPRPRPKDFPRP, for which the “shrunken log2 fold change” value came out at 0.00489.

RRIRRRPPRLPRPRPRPCHHPRP: the “shrunken log2 fold change” value was -0.0387.

In the case of RRIRNRPPRLPRPRPRPECNPRP, the “shrunken log2 fold change” value was -0.0153.

In the case of RRIRKRPPRLPRPRPRPTLKPRP, the “shrunken log2 fold change” value stood at 0.601.

Turning to RRIRERPPRLPRPRPRPWTPPRP, the “shrunken log2 fold change” value is -0.15.

On to RRIRFRPPRLPRPRPRPDQCPRP, for which the “shrunken log2 fold change” value is -0.0562.

In the case of RRIRFRPPRLPRPRPRPRKCPRP, the “shrunken log2 fold change” value was -0.0611.

For RRIRIRPPRLPRPRPRPMFLPRP, the “shrunken log2 fold change” value was -0.624.

For the sequence RRIRFRPPRLPRPRPRPFDRPRP, the “shrunken log2 fold change” value is 0.0332.

Turning to RRIRKRPPRLPRPRPRPYEGPRP, the “shrunken log2 fold change” value is -0.0017.

Regarding RRIRIRPPRLPRPRPRPHWMPRP, the “shrunken log2 fold change” value was -1.57.

In the case of RRIRFRPPRLPRPRPRPLRDPRP, the “shrunken log2 fold change” value came out at 0.717.

Turning to RRIRARPPRLPRPRPRPMCYPRP, the “shrunken log2 fold change” value was -0.112.

With RRIRFRPPRLPRPRPRPCNKPRP, the “shrunken log2 fold change” value was -0.249.

In the case of RRIRARPPRLPRPRPRPSRDPRP, the “shrunken log2 fold change” value came to 0.199.

Take RRIRIRPPRLPRPRPRPEQFPRP: the “shrunken log2 fold change” value was 0.00851.

As to RRIRPRPPRLPRPRPRPTQCPRP, the “shrunken log2 fold change” value is -0.194.

For RRIRSRPPRLPRPRPRPHFNPRP, the “shrunken log2 fold change” value was -0.419.

As to RRIRRRPPRLPRPRPRPTLTPRP, the “shrunken log2 fold change” value turned out to be 0.466.

Regarding RRIRERPPRLPRPRPRPQYSPRP, the “shrunken log2 fold change” value is -0.0489.

For the sequence RRIRYRPPRLPRPRPRPQITPRP, the “shrunken log2 fold change” value is -0.918.

With RRIRVRPPRLPRPRPRPIQWPRP, the “shrunken log2 fold change” value stood at 0.138.

With RRIRERPPRLPRPRPRPPYCPRP, the “shrunken log2 fold change” value was -0.275.

For the sequence RRIRCRPPRLPRPRPRPWFMPRP, the “shrunken log2 fold change” value was -0.776.

For the sequence RRIRWRPPRLPRPRPRPLHFPRP, the “shrunken log2 fold change” value was 0.136.

Regarding RRIRARPPRLPRPRPRPDLYPRP, the “shrunken log2 fold change” value stood at 0.00132.

As for RRIRGRPPRLPRPRPRPIYGPRP, the “shrunken log2 fold change” value is -0.141.

RRIRQRPPRLPRPRPRPLLWPRP: the “shrunken log2 fold change” value came to 0.091.

For RRIRLRPPRLPRPRPRPYPEPRP, the “shrunken log2 fold change” value is -0.201.

As for RRIRTRPPRLPRPRPRPKWTPRP, the “shrunken log2 fold change” value was found to be 0.0189.

For RRIRIRPPRLPRPRPRPPYMPRP, the “shrunken log2 fold change” value was -1.19.

Take RRIRKRPPRLPRPRPRPVLSPRP: the “shrunken log2 fold change” value was 0.3.

For the sequence RRIRQRPPRLPRPRPRPDWNPRP, the “shrunken log2 fold change” value was -0.189.

For RRIRTRPPRLPRPRPRPHAEPRP, the “shrunken log2 fold change” value was 0.17.

RRIRDRPPRLPRPRPRPPWPPRP: the “shrunken log2 fold change” value came to 0.654.

Regarding RRIRNRPPRLPRPRPRPQIPPRP, the “shrunken log2 fold change” value came to 0.0549.

With RRIRCRPPRLPRPRPRPSMHPRP, the “shrunken log2 fold change” value was -0.346.

For RRIRNRPPRLPRPRPRPTVYPRP, the “shrunken log2 fold change” value came to 0.0487.

Turning to RRIRNRPPRLPRPRPRPKKNPRP, the “shrunken log2 fold change” value was -0.0707.

Take RRIRGRPPRLPRPRPRPHIWPRP: the “shrunken log2 fold change” value was determined as 0.00296.

Take RRIRFRPPRLPRPRPRPASNPRP: the “shrunken log2 fold change” value is -0.479.

In the case of RRIRWRPPRLPRPRPRPTEQPRP, the “shrunken log2 fold change” value amounted to 0.357.

For the sequence RRIRVRPPRLPRPRPRPTCMPRP, the “shrunken log2 fold change” value is -0.125.

Regarding RRIRCRPPRLPRPRPRPMKLPRP, the “shrunken log2 fold change” value was -0.0356.

As for RRIRIRPPRLPRPRPRPRMRPRP, the “shrunken log2 fold change” value worked out at 0.791.

Consider RRIRTRPPRLPRPRPRPFGFPRP, for which the “shrunken log2 fold change” value was -0.473.

Turning to RRIRRRPPRLPRPRPRPQKYPRP, the “shrunken log2 fold change” value is -0.696.

With RRIRLRPPRLPRPRPRPNRFPRP, the “shrunken log2 fold change” value is -0.404.

As to RRIRPRPPRLPRPRPRPHGYPRP, the “shrunken log2 fold change” value was -0.0483.

In the case of RRIRQRPPRLPRPRPRPVIRPRP, the “shrunken log2 fold change” value was -0.406.

As to RRIRYRPPRLPRPRPRPKACPRP, the “shrunken log2 fold change” value is -0.00227.

As for RRIRTRPPRLPRPRPRPTYRPRP, the “shrunken log2 fold change” value is -0.0768.

In the case of RRIRARPPRLPRPRPRPMRFPRP, the “shrunken log2 fold change” value amounted to 0.869.

As to RRIRERPPRLPRPRPRPINIPRP, the “shrunken log2 fold change” value was -0.973.

With RRIRERPPRLPRPRPRPHTAPRP, the “shrunken log2 fold change” value is -0.14.

For the sequence RRIRTRPPRLPRPRPRPRIKPRP, the “shrunken log2 fold change” value is -0.208.

As for RRIRCRPPRLPRPRPRPCVWPRP, the “shrunken log2 fold change” value is -0.013.

For the sequence RRIRMRPPRLPRPRPRPKTIPRP, the “shrunken log2 fold change” value turned out to be 0.0873.

As for RRIRSRPPRLPRPRPRPSIEPRP, the “shrunken log2 fold change” value was -0.013.

Regarding RRIRSRPPRLPRPRPRPVHTPRP, the “shrunken log2 fold change” value is 0.0158.

Take RRIRARPPRLPRPRPRPCFFPRP: the “shrunken log2 fold change” value came to 0.145.

As to RRIRWRPPRLPRPRPRPWQPPRP, the “shrunken log2 fold change” value is -0.0542.

Regarding RRIRLRPPRLPRPRPRPIKWPRP, the “shrunken log2 fold change” value is -0.412.

On to RRIRCRPPRLPRPRPRPQVLPRP, for which the “shrunken log2 fold change” value is -0.0248.

In the case of RRIRVRPPRLPRPRPRPMRRPRP, the “shrunken log2 fold change” value is 0.392.

For RRIRGRPPRLPRPRPRPFDVPRP, the “shrunken log2 fold change” value was found to be 0.147.

With RRIRIRPPRLPRPRPRPVRHPRP, the “shrunken log2 fold change” value is -0.0859.

On to RRIRIRPPRLPRPRPRPSAAPRP, for which the “shrunken log2 fold change” value is 0.0317.

For the sequence RRIRDRPPRLPRPRPRPWMIPRP, the “shrunken log2 fold change” value was -0.124.

On to RRIRWRPPRLPRPRPRPLRQPRP, for which the “shrunken log2 fold change” value came out at 0.539.

In the case of RRIRWRPPRLPRPRPRPTHKPRP, the “shrunken log2 fold change” value stood at 0.396.

As for RRIRKRPPRLPRPRPRPNAKPRP, the “shrunken log2 fold change” value is -0.0195.

Take RRIRERPPRLPRPRPRPYVIPRP: the “shrunken log2 fold change” value is -0.172.

Regarding RRIRKRPPRLPRPRPRPVGAPRP, the “shrunken log2 fold change” value was found to be 0.853.

Regarding RRIRTRPPRLPRPRPRPVSHPRP, the “shrunken log2 fold change” value is -0.265.

Values taken from the supplement of paper PMC9112550, “Optimization of the antimicrobial peptide Bac7 by deep mutational scanning” (BMC Biology, 2022).
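Further: peptides expressed intracellularly from a pBAD plasmid library in pooled LB shake-flask culture, induced with 0.3% L-arabinose, DNA abundance read by NGS, three biological replicates, DESeq2 with apeglm shrinkage.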
